According to the supplement of paper PMC6757056:
± gives the standard deviation of the averaged measurements.

B1: library; a variant is named by its letters at N, in order (parent)
chain: GCUGUCACCGGUGCUUGGUACGUUAUAUUCAGCCGGUCUGAUGAGUCUNNNNNNAGACGAAACAGC

Experiments:
(6R,S)-folinic acid [1] = variants of: B1; assay: normalized RNA/DNA level without ligand (relative to sTRSVctl = 100) (log10 (% of sTRSVctl)); HEK293T overexpressing SLC46A1; higher = less ribozyme self-cleavage, higher mRNA level; settings: without (6R,S)-folinic acid; ligand present: no
Outline: (§1)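 Ribozyme switch library plasmids linked to reporters were introduced into HEK293T cells at 4 µg per 6-well well, with ligand, if any, added 1 h before. Total RNA was extracted with EDTA 72 h later, reverse-transcribed, amplified, barcoded and sequenced. RNA level was computed from RNA over DNA reads relative to a spiked-in non-cleaving sequence or the top sequences, then scaled and log-transformed. The top set was 25 sequences, values were ×100 and log10, and the cutoff was ≥100 DNA reads.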

(6R,S)-folinic acid [2] = variants of: B1; assay: normalized RNA/DNA level with ligand (relative to sTRSVctl = 100) (log10 (% of sTRSVctl)); HEK293T overexpressing SLC46A1; ligand concentration (+) RNA-Seq: 6 mM; higher = less ribozyme self-cleavage, higher mRNA level; settings: with (6R,S)-folinic acid; ligand present: yes
Outline: as §1

GCUGUCACCGGUGCUUGGUACGUUAUAUUCAGCCGGUCUGAUGAGUCUUGUGUUAGACGAAACAGC [UGUGUU]
normalized RNA/DNA level without ligand (log10) ((6R,S)-folinic acid [1]): 1.907 ± 0.019
normalized RNA/DNA level with ligand (log10) ((6R,S)-folinic acid [2]): 1.966 ± 0.019

GCUGUCACCGGUGCUUGGUACGUUAUAUUCAGCCGGUCUGAUGAGUCUUGUGUCAGACGAAACAGC [UGUGUC]
normalized RNA/DNA level without ligand (log10) ((6R,S)-folinic acid [1]): 2.041 ± 0.019
normalized RNA/DNA level with ligand (log10) ((6R,S)-folinic acid [2]): 2.004 ± 0.012

GCUGUCACCGGUGCUUGGUACGUUAUAUUCAGCCGGUCUGAUGAGUCUCGUGGUAGACGAAACAGC [CGUGGU]
normalized RNA/DNA level without ligand (log10) ((6R,S)-folinic acid [1]): 1.998 ± 0.0064
normalized RNA/DNA level with ligand (log10) ((6R,S)-folinic acid [2]): 1.99 ± 0.029

GCUGUCACCGGUGCUUGGUACGUUAUAUUCAGCCGGUCUGAUGAGUCUCGUUACAGACGAAACAGC [CGUUAC]
normalized RNA/DNA level without ligand (log10) ((6R,S)-folinic acid [1]): 2.037 ± 0.015
normalized RNA/DNA level with ligand (log10) ((6R,S)-folinic acid [2]): 2.01 ± 0.037

GCUGUCACCGGUGCUUGGUACGUUAUAUUCAGCCGGUCUGAUGAGUCUGGUGGUAGACGAAACAGC [GGUGGU]
normalized RNA/DNA level without ligand (log10) ((6R,S)-folinic acid [1]): 2.053 ± 0.016
normalized RNA/DNA level with ligand (log10) ((6R,S)-folinic acid [2]): 2.03 ± 0.031

GCUGUCACCGGUGCUUGGUACGUUAUAUUCAGCCGGUCUGAUGAGUCUCGUGUGAGACGAAACAGC [CGUGUG]
normalized RNA/DNA level without ligand (log10) ((6R,S)-folinic acid [1]): 1.972 ± 0.015
normalized RNA/DNA level with ligand (log10) ((6R,S)-folinic acid [2]): 1.99 ± 0.032

GCUGUCACCGGUGCUUGGUACGUUAUAUUCAGCCGGUCUGAUGAGUCUCGUGUCAGACGAAACAGC [CGUGUC]
normalized RNA/DNA level without ligand (log10) ((6R,S)-folinic acid [1]): 2.0808 ± 0.0006
normalized RNA/DNA level with ligand (log10) ((6R,S)-folinic acid [2]): 2.07 ± 0.043

GCUGUCACCGGUGCUUGGUACGUUAUAUUCAGCCGGUCUGAUGAGUCUCGUGUUAGACGAAACAGC [CGUGUU]
normalized RNA/DNA level without ligand (log10) ((6R,S)-folinic acid [1]): 2.001 ± 0.016
normalized RNA/DNA level with ligand (log10) ((6R,S)-folinic acid [2]): 2.03 ± 0.057

GCUGUCACCGGUGCUUGGUACGUUAUAUUCAGCCGGUCUGAUGAGUCUCGUGUAAGACGAAACAGC [CGUGUA]
normalized RNA/DNA level without ligand (log10) ((6R,S)-folinic acid [1]): 1.981 ± 0.009
normalized RNA/DNA level with ligand (log10) ((6R,S)-folinic acid [2]): 2 ± 0.028

GCUGUCACCGGUGCUUGGUACGUUAUAUUCAGCCGGUCUGAUGAGUCUGGUGUCAGACGAAACAGC [GGUGUC]
normalized RNA/DNA level without ligand (log10) ((6R,S)-folinic acid [1]): 2.051 ± 0.019
normalized RNA/DNA level with ligand (log10) ((6R,S)-folinic acid [2]): 2.01 ± 0.028

GCUGUCACCGGUGCUUGGUACGUUAUAUUCAGCCGGUCUGAUGAGUCUGGUGUAAGACGAAACAGC [GGUGUA]
normalized RNA/DNA level without ligand (log10) ((6R,S)-folinic acid [1]): 1.972 ± 0.01
normalized RNA/DNA level with ligand (log10) ((6R,S)-folinic acid [2]): 2.01 ± 0.02

GCUGUCACCGGUGCUUGGUACGUUAUAUUCAGCCGGUCUGAUGAGUCUGGUGUGAGACGAAACAGC [GGUGUG]
normalized RNA/DNA level without ligand (log10) ((6R,S)-folinic acid [1]): 1.98 ± 0.014
normalized RNA/DNA level with ligand (log10) ((6R,S)-folinic acid [2]): 2.04 ± 0.034

GCUGUCACCGGUGCUUGGUACGUUAUAUUCAGCCGGUCUGAUGAGUCUGGUGUUAGACGAAACAGC [GGUGUU]
normalized RNA/DNA level without ligand (log10) ((6R,S)-folinic acid [1]): 2.029 ± 0.0064
normalized RNA/DNA level with ligand (log10) ((6R,S)-folinic acid [2]): 2.02 ± 0.041

GCUGUCACCGGUGCUUGGUACGUUAUAUUCAGCCGGUCUGAUGAGUCUGGUUAAAGACGAAACAGC [GGUUAA]
normalized RNA/DNA level without ligand (log10) ((6R,S)-folinic acid [1]): 1.987 ± 0.0045
normalized RNA/DNA level with ligand (log10) ((6R,S)-folinic acid [2]): 2.02 ± 0.031

GCUGUCACCGGUGCUUGGUACGUUAUAUUCAGCCGGUCUGAUGAGUCUAGUGUAAGACGAAACAGC [AGUGUA]
normalized RNA/DNA level without ligand (log10) ((6R,S)-folinic acid [1]): 1.942 ± 0.007
normalized RNA/DNA level with ligand (log10) ((6R,S)-folinic acid [2]): 2 ± 0.05

GCUGUCACCGGUGCUUGGUACGUUAUAUUCAGCCGGUCUGAUGAGUCUAGUGUUAGACGAAACAGC [AGUGUU]
normalized RNA/DNA level without ligand (log10) ((6R,S)-folinic acid [1]): 2.026 ± 0.011
normalized RNA/DNA level with ligand (log10) ((6R,S)-folinic acid [2]): 2.04 ± 0.027

GCUGUCACCGGUGCUUGGUACGUUAUAUUCAGCCGGUCUGAUGAGUCUAGUGUCAGACGAAACAGC [AGUGUC]
normalized RNA/DNA level without ligand (log10) ((6R,S)-folinic acid [1]): 2.054 ± 0.0091
normalized RNA/DNA level with ligand (log10) ((6R,S)-folinic acid [2]): 2 ± 0.046

GCUGUCACCGGUGCUUGGUACGUUAUAUUCAGCCGGUCUGAUGAGUCUAGUGUGAGACGAAACAGC [AGUGUG]
normalized RNA/DNA level without ligand (log10) ((6R,S)-folinic acid [1]): 1.78 ± 0.018
normalized RNA/DNA level with ligand (log10) ((6R,S)-folinic acid [2]): 1.97 ± 0.01

GCUGUCACCGGUGCUUGGUACGUUAUAUUCAGCCGGUCUGAUGAGUCUAGUGGUAGACGAAACAGC [AGUGGU]
normalized RNA/DNA level without ligand (log10) ((6R,S)-folinic acid [1]): 1.95 ± 0.013
normalized RNA/DNA level with ligand (log10) ((6R,S)-folinic acid [2]): 2.02 ± 0.049

GCUGUCACCGGUGCUUGGUACGUUAUAUUCAGCCGGUCUGAUGAGUCUAGUGGGAGACGAAACAGC [AGUGGG]
normalized RNA/DNA level without ligand (log10) ((6R,S)-folinic acid [1]): 1.921 ± 0.019
normalized RNA/DNA level with ligand (log10) ((6R,S)-folinic acid [2]): 2.04 ± 0.035

GCUGUCACCGGUGCUUGGUACGUUAUAUUCAGCCGGUCUGAUGAGUCUAGUUAAAGACGAAACAGC [AGUUAA]
normalized RNA/DNA level without ligand (log10) ((6R,S)-folinic acid [1]): 1.9569 ± 0.00052
normalized RNA/DNA level with ligand (log10) ((6R,S)-folinic acid [2]): 1.99 ± 0.024
